In one assay the target is T1, Human in house BCMA (Homo sapiens, UniProt Q02223).
T1 construct: CD33 signal peptide (N); TEV site (internal); Fc (C); made in house
Nature of the assay: ProteOn analysis of CA8 chimeric and humanised constructs, human in house BCMA. The assay is classed as binding. The method, then:
(§1) The initial screen of CA8 chimeric and humanised variants was carried out on the ProteOn XPR36 (Biorad). The method was as follows; Protein A was immobilised on a GLC chip (Biorad, Cat No: 176-5011) by primary amine coupling, CA8 variants were then captured on this surface and recombinant human BCMA (in house or commercial US Biological, B0410) materials (run 2 only)) passed over at 256, 64, 16, 4, 1 nM with a 0 nM injection (i.e. buffer alone) used to double reference the binding curves, the buffer used is the HBS-EP buffer. 50 mM NaOH was used to regenerate the capture surface. The data was fitted to the 1:1 model using the analysis software inherent to the ProteOn XPR36. Run 1 corresponds to the first screen of humanised CA8 variants (JO to J5 series) and run 2 to the second screen of humanised CA8 variants (J5 to J9 series). Both runs were carried out at 25° C.

The target of assay [1] is T2, Human commercial BCMA (Homo sapiens, UniProt Q02223).
T2 construct: purchased US Biological B0410
T2 sequence (Q02223 1-184): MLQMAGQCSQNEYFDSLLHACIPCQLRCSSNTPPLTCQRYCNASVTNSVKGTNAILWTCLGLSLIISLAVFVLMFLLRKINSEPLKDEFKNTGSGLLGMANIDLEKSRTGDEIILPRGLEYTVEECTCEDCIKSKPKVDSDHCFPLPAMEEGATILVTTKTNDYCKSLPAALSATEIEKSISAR
The experiment in a line: ProteOn analysis of CA8 chimeric and humanised constructs, commercial human BCMA. To be noted: Run 2, commercial human BCMA, 25° C. It is filed as binding. Here is the method: as §1

In assay [2] the test system is Cyno in house BCMA. Nature of the assay: ProteOn analysis of CA8 chimeric and humanised constructs, cyno in house BCMA. The assay is classed as binding. To be noted: Run 2, Cyno in house BCMA, 25° C.
Chain of Cyno in house BCMA (as listed by the source): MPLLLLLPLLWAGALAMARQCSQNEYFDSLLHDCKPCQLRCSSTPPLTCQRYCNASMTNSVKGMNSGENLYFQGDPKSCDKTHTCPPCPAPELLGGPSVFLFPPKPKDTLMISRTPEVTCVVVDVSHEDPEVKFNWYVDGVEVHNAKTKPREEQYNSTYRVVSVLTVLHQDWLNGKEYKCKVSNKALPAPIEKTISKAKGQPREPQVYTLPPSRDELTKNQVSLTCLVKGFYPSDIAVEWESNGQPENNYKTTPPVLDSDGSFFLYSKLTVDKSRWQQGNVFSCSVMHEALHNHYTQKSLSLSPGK
In assay [3] the target is T2, Human commercial BCMA. Nature of the assay: BIAcore analysis of J6M0 and J9M0, human commercial BCMA. It is filed as binding. Here is the method: Protein A was immobilised on a CMS chip (GE Healthcare, Cat No: BR-1005-30) by primary amine coupling and this surface was then used to capture the antibody molecules. Recombinant human BCMA (US Biological, B0410) was used as analyte at 256 nM, 64 nM, 16 nM, 4 nM and 1 nM. Regeneration of the capture surface was carried out using 50 mM NaOH. All binding curves were double referenced with a buffer injection (i.e. 0 nM) the data was fitted to the using the 1:1 model inherent to T100 evaluation software. The run was carried out at 25° C. and 37° C. for experiment 1 and only 37° C. for experiment 2 using HBS-EP as the running buffer.

Assay [4] deals with Europium labelled ARH77-10B5 cells. The experiment in a line: ADCC potency of conjugated, afucosylated J6M0. To be noted: PBMC: target cell ratio 50:1, up to 10000 ng/ml, 2 hours. It is filed as cell-based, human. Here is the method: FIG. 17: ADCC activity of ADC J6M0 molecules—Figure showing ADCC assay on J6M0 antibodies using ARH77 BCMA expressing target cells. Human PBMC were incubated with europium labelled ARH77 BCMA transfected target cells in the presence of a range of concentrations of J6M0 WT and potelligent BCMA antibodies conjugated to MMAE, MMAF, or unconjugated Europium release was monitored on the Victor 2 1420 multilabel reader.
Afucosylated J6M0 conjugated to MMAE or MMAF was tested in ADCC assays using BCMA transfectants to ensure that its ADCC activity was not compromised by the conjugation. Europium labelled ARH77-10B5 cells were incubated with various J6M0 WT and Potelligent BCMA antibodies at concentrations up to 10000 ng/ml for 30 minutes prior to the addition of PBMCs (PBMC: target cell ratio 50:1). Two hours later an aliquot of cell media was sampled and mixed with enhancement solution. After 30 minutes on a plate shaker, europium release was monitored on the Victor 2 1420 multi-label reader. Datapoints represent means of triplicate values.

The subject of assay [5] is five multiple myeloma target cell lines. Nature of the assay: ADCC of afucosylated J6M0 on MM cell lines (panel). As to conditions: human PBMC, E:T ratio 50:1, 18 hours. It is filed as cell-based. The method, then:
(§2) FIG. 18: ADCC dose response curves of CA8 J6M0 Potelligent against a panel of 5 multiple myeloma lines—Human PBMC were incubated with multiple myeloma target cells in the presence of varying concentrations of CA8 J6M0 potelligent antibody at an E:T ratio of 50:1 for 18 hours. The percentage of target cells remaining in the effector plus target mixture was then measured by FACS using a fluorescently labelled anti-CD138 antibody to detect the target cells and the percent cytotoxicity calculated. Example dose response curves for CA8 J6M0 potelligent against the five multiple myeloma cell lines tested—[…], RPMI8226, JJN-3, OPM-2, and U266. Each data point is from a singlicate value.
(§3) Human PBMC were incubated with multiple myeloma target cells at an E:T ratio of 50:1 in presence of varying concentrations of afucosylated (Potelligent) J6M0 The percentage of target cells remaining in the effector+target cell mixture after 18 hours was measured by FACS using a fluorescently labelled anti-CD138 antibody to detect the target cells and the percent lysis calculated. This is representative of several experiments.

The test system of another assay is OPM-2. Nature of the assay: ADCC of afucosylated J6M0, OPM-2. The assay is classed as cell-based, human. As to conditions: OPM-2, ADCC, PBMC E:T 50:1, 18 hours; one value per assay/donor (A-K). Here is the method:
as §2, §3

The next assay concerns U266. The experiment in a line: ADCC of afucosylated J6M0, U266. The assay is classed as cell-based, human. As to conditions: PBMC E:T 50:1, 18 hours, one value per assay/donor (A-K). Here is the method: as §2, §3
The subject of another assay is NCI-H929 tumours. The experiment in a line: NCI-H929 murine xenograft. It is filed as in vivo, CB.17 SCID mice. Here is the method:
FIG. 19: Effect of dose escalation of J6M0 and drug conjugated J6M0 on the growth and establishment of NCI-H929 cells in CB.17 SCID mice. Calculated tumour volumes of NCI-H929 tumours in CB17 SCID mice following twice weekly intraperitoneal dosing of either 50 or 100 ug J6M0 anti-BCMA or IgG1 isotype control unconjugated, or conjugated to MMAE or MMAF for 2 weeks. Data points represent mean tumour volume of n=5 per group
The cell line selected for xenograft studies was NCI-H929 which is sensitive to ADC and ADCC killing in vitro. Studies were carried out in immunocompromised CB.17 SCID mice which lack T and B cells but maintain NK cells to allow for ADCC activity.
In order to independently analyze both the ADCC and ADC activities of J6M0 we tested J6M0 antibody in the presence and absence of MMAF or MMAE conjugation. By testing the unconjugated J6M0, any anti-tumour effects could be attributed to some combination of ADDC and functional inhibitory activity.
Mice with NCI-H929 tumours that had reached a volume of 200 mm^3 on average were treated with a human IgG1 control or the J6M0 antibody (unconjugated, MMAE or MMAF) twice weekly at a dose of 50 ug or 100 ug, for 2 weeks.

The target in assay [6] is T3, ARH77-hBCMA 10B5 BCMA expressing transfectant cells (Homo sapiens, UniProt Q02223).
T3 construct: expressed in transfected cells; host or cells: ARH77 (clone 10B5)
T3 sequence (Q02223 1-184): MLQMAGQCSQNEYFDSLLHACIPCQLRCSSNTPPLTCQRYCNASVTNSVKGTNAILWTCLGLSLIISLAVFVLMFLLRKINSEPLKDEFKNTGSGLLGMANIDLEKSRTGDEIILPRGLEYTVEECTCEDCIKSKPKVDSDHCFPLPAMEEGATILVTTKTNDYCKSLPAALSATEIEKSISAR
The experiment in a line: FACS binding of humanised CA8 to BCMA transfected cells. As to conditions: varying concentrations, 20 minutes at RT. Here is the method:
(§4) ARH77-hBCMA 10B5 BCMA expressing transfectant cells or H929 cells were stained with either chimeric CA8 or humanised variants of CA8 designated J6M0, J6M1, J6M2, J9M0, J9M1, J9M2 at varying concentrations for 20 minutes at RT. Cells were then washed with FACS buffer (PBS+0.5% BSA+0.1% sodium azide) to remove unbound antibody. Cells were incubated with a secondary PE labelled anti-human IgG antibody for 15 minutes at RT and then washed with FACS buffer to remove unbound antibody. Cells were analysed by FACS and mean fluorescence intensity (MFI) values measured to determine binding.
A general note: In flow cytometry, cells or beads pass a laser one at a time.

A further assay has as its system H929 cells. The experiment in a line: FACS binding of humanised CA8 to H929 cells. Further details: species or system human. As to conditions: varying concentrations, 20 minutes at RT. The method, then: as §4
The target of assay [7] is T2, Human commercial BCMA. The experiment in a line: BIAcore analysis J7 to J9 series, human commercial BCMA. The assay is classed as binding. To be noted: 37° C. Here is the method:
Protein A was immobilised on a CMS chip (GE Healthcare, Cat No: BR-1005-30) by primary amine coupling and this surface was then used to capture the antibody molecules. Recombinant human BCMA (US Biological, B0410) was used as analyte at 256 nM, 64 nM, 16 nM, 4 nM and 1 nM. Regeneration of the capture surface was carried out using 50 mM NaOH. All binding curves were double referenced with a buffer injection (i.e. 0 nM) and the data was fitted to the using the 1:1 model inherent to T100 evaluation software. The run was carried out at 37° C., using HBS-EP as the running buffer.
A general note: In SPR one partner is held on a chip, and binding of the other changes the refractive index at the surface.

For assay [8], the system named is Cyno in house BCMA. Nature of the assay: BIAcore analysis J7 to J9 series, cyno in house BCMA. The assay is classed as binding. As to conditions: 37° C.

Broadly, the EC50 is the midpoint of the concentration-response curve. A lower EC50 goes with greater potency.

T1 sequence (Q02223 with tags, fused parts or gaps limits assumed): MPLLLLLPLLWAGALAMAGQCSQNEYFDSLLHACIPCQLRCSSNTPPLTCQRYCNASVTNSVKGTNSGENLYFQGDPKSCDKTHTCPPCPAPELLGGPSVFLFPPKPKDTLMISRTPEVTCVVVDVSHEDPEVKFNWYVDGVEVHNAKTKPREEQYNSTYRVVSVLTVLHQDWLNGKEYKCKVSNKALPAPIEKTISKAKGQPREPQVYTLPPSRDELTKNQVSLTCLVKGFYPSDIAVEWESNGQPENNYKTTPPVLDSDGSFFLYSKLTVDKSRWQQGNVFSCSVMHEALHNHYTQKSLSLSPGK

CA8 humanised J6M0: the ka was determined as 2.40E+05 in the assay with Human in house BCMA (Run 2, Human in house BCMA, ProteOn, 25° C., in M-1s-1 (unit assumed)); 6.23E+05 in the assay with Human commercial BCMA [1] (in M-1s-1 (unit assumed)); 5.64E+04 in the assay on Cyno in house BCMA [2] (in M-1s-1 (unit assumed)); 1.01E+06 in the assay with Human commercial BCMA [3] (25° C., Experiment 1, in M-1s-1 (unit assumed)); 2.12E+06 with Human commercial BCMA [3] (37° C., Experiment 1, in M-1s-1 (unit assumed)); 3.78E+06 in the assay with Human commercial BCMA [3] (37° C., Experiment 2, in M-1s-1 (unit assumed)). Besides, the kd in the assay with Human in house BCMA (Run 2, Human in house BCMA, ProteOn, 25° C., in s-1 (unit assumed)) is 7.40E−05; in the assay with Human commercial BCMA [1] (in s-1 (unit assumed)), 5.37E−05; at Cyno in house BCMA [2] (in s-1 (unit assumed)), 3.18E−04; with Human commercial BCMA [3] (25° C., Experiment 1, in s-1 (unit assumed)), 1.22E−04; in the assay with Human commercial BCMA [3] (37° C., Experiment 1, in s-1 (unit assumed)), 1.48E−03; with Human commercial BCMA [3] (37° C., Experiment 2, in s-1 (unit assumed)), 1.88E−03.

Turning to “J6M0 Potelligent: humanised CA8 version J6M0 in afucosylated (Potelligent) form”, the “ADCC potency (europium release)” value in assay [4] is “lower EC50 and higher maximal lysis”. Also, the ADCC activity result in assay [5] is “showed ADCC activity against all five multiple myeloma target cell lines tested”. Moreover, the EC50 in the assay on OPM-2 is on record as 4.15 ng/mL; in the assay on U266 it was 9.04 ng/mL.

As for J6M0-MMAF, in the assay on NCI-H929 tumours (50 ug or 100 ug twice weekly for 2 weeks), the “anti-tumour activity compared with unconjugated J6M0 and J6M0-MMAE” value was “increased anti-tumour activity over both unconjugated J6M0 antibody and J6M0-MMAE conjugate”. Besides, in the assay with NCI-H929 tumours (100 ug dose twice weekly for 2 weeks, intraperitoneal, tumours 200 mm^3 at start), the “effect on NCI-H929 tumours” value was “elimination of tumours”. Besides, in the assay on NCI-H929 tumours (mice maintained for 40 days after the last dose), the recurrence of tumour result is “no recurrence of tumour”.

B1: CA8 humanised J9M2: humanised CA8 anti-BCMA antibody, VH J9 (SEQ ID NO:29) + VL M2 (SEQ ID NO:35) (antibody, V domains shown)
VH: QVQLVQSGAEVKKPGSSVKVSCKGSGYTFTNYWMHWVRQAPGQGLEWIGATYRGHSDTYYNQKFKGRATLTADTSTSTAYMELSSLRSEDTAVYYCTRGAIYDGYDVLDNWGQGTLVTVSS
VL: DIQLTQSPSSLSASVGDRVTITCSASQDISNYLNWYQQKPGKAPELVIYYTSNLHSGVPSRFSGSGSGTDYTLTISSLQPEDFATYYCQQYRKLPWTFGQGTKLEIKR
modifications: Humansed antibody sequence
B1: the “dose dependent binding to ARH77-hBCMA 10B5 cells by FACS (MFI)” value in assay [6] is recorded as “all antibodies tested apart from J9M2 bound”. For the same molecule, in the assay with H929 cells, the “dose dependent binding to H929 cells by FACS (MFI)” value is reported as “all antibodies tested apart from J9M2 bound”. Further, the off rate entry with Human in house BCMA (Run 2, ProteOn, recombinant human BCMA, no affinity values obtained) is on record as “beyond the sensitivity of the assay”. In addition, the KD entry with Human commercial BCMA [7] is on record as “No”. Moreover, in the assay on Cyno in house BCMA [8] (in M-1s-1 (unit assumed)), the ka turned out to be 4.88E+05. The same molecule showed a kd at Cyno in house BCMA [8] (in s-1 (unit assumed)) of 2.52E−04.
